Data published in patent US20110263454A1, “Methods of Identifying Functional Characteristics of Promoters, Transcription Modifying Proteins and Transcription Modulating Agents” (Salk Institute for Biological Studies, priority 2008, published 2011).

How the values were obtained:
hCAR promoter = assay: NHR-promoter luciferase screen, hCAR promoter; assay type: cell-based, human; conditions: for luciferase activity normalized to lacZ activity and to a control, hCAR: hCAR promoter-luciferase, CV-1 cells, NHR +/- ligand, control = 1.00; for Luc. act., normalized to lacZ / Normalized Luc. act., normalized to control: hCAR promoter, HR/ligand component
In short: (§1)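 CV-1 cells were co-transfected with 50 ng NHR (homodimer or NHR/RXR heterodimer), 100 ng promoter-luciferase construct and 50 ng LacZ. Luciferase was normalized to LacZ and to a no-NHR/no-ligand control.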

mPgc1b promoter = assay: NHR-promoter luciferase screen, mPgc1b promoter; assay type: cell-based, mouse; conditions: for Luc. act., normalized to lacZ / Normalized Luc. act., normalized to control: PGC1b promoter reporter, co-transfected HR, without or with its ligand; for Normalized Luc. act., normalized to control: relative to control; for luciferase activity normalized to lacZ activity and to a control, mPgc1b: mPgc1b promoter-luciferase, CV-1 cells, NHR +/- ligand, control = 1.00
In short: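 Luciferase reporter read-out after co-expression in CV-1 cells of V5H6-tagged receptor (alone or with RXR), the promoter construct and LacZ. Values are luciferase/LacZ relative to a control lacking NHR or ligand; orphan receptors tested ligand-free.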

mUCP1 promoter = assay: NHR-promoter luciferase screen, mUCP1 promoter; assay type: cell-based, mouse; conditions: for Luc. act., normalized to lacZ / Normalized Luc. act., normalized to control: mUCP1 promoter reporter, co-transfected HR, with or without its ligand; for Normalized Luc. act., normalized to control: relative to control; for luciferase activity normalized to lacZ activity and to a control, mUCP!: mUCP! promoter-luciferase, CV-1 cells, NHR +/- ligand, control = 1.00
In short: as §1

hPOMC promoter = assay: NHR-promoter luciferase screen, hPOMC promoter; assay type: cell-based, human; conditions: for Luc. act., normalized to lacZ / Normalized Luc. act., normalized to control: hPOMC promoter, HR/ligand component; for hPOMC promoter reporter activity: transcription factor +/- ligand, control = 1.00
In short: as §1

mUCP3 promoter = assay: NHR-promoter luciferase screen, mUCP3 promoter; assay type: cell-based, mouse; conditions: for Normalized Luc. act., normalized to control / Luc. act., normalized to lacZ: mUCP3 promoter reporter; for Normalized Luc. act., normalized to control: HR without or with its ligand, relative to control; for Luc. act., normalized to lacZ: hormone receptor (HR) without or with its ligand; for mUCP3 promoter reporter activity: transcription factor +/- ligand, control = 1.00
In short: as §1

MCP-1 promoter = assay: NHR-promoter luciferase screen, MCP-1 promoter; assay type: cell-based; conditions: for Normalized Luc. act., normalized to control / Luc. act., normalized to lacZ: MCP-1 promoter reporter; for Normalized Luc. act., normalized to control: HR without or with its ligand, relative to control; for Luc. act., normalized to lacZ: hormone receptor (HR) without or with its ligand; for mMCP-1 promoter reporter activity: transcription factor +/- ligand, control = 1.00
In short: as §1

Row | Molecule | luciferase activity normalized to lacZ activity and to a control, hCAR (hCAR promoter) | Luc. act., normalized to lacZ (hCAR promoter) | Normalized Luc. act., normalized to control (hCAR promoter) | Luc. act., normalized to lacZ (mPgc1b promoter) | Normalized Luc. act., normalized to control (mPgc1b promoter) | luciferase activity normalized to lacZ activity and to a control, mPgc1b (mPgc1b promoter) | Luc. act., normalized to lacZ (mUCP1 promoter) | Normalized Luc. act., normalized to control (mUCP1 promoter) | luciferase activity normalized to lacZ activity and to a control, mUCP! (mUCP1 promoter) | Luc. act., normalized to lacZ (hPOMC promoter) | Normalized Luc. act., normalized to control (hPOMC promoter) | hPOMC promoter reporter activity (hPOMC promoter) | Normalized Luc. act., normalized to control (mUCP3 promoter) | Luc. act., normalized to lacZ (mUCP3 promoter) | mUCP3 promoter reporter activity (mUCP3 promoter) | Normalized Luc. act., normalized to control (MCP-1 promoter) | Luc. act., normalized to lacZ (MCP-1 promoter) | mMCP-1 promoter reporter activity (MCP-1 promoter)
1 | RARb: Retinoic acid receptor β (NR1B2), nuclear hormone receptor cDNA driver (protein, UniProt P10826 1-455, looked up) Retinoic acid receptor beta: MTTSGHACPVPAVNGHMTHYPATPYPLLFPPVIGGLSLPPLHGLHGHPPPSGCSTPSPATIETQSTSSEELVPSPPSPLPPPRVYKPCFVCQDKSSGYHYGVSACEGCKGFFRRSIQKNMIYTCHRDKNCVINKVTRNRCQYCRLQKCFEVGMSKESVRNDRNKKKKETSKQECTESYEMTAELDDLTEKIRKAHQETFPSLCQLGKYTTNSSADHRVRLDLGLWDKFSELATKCIIKIVEFAKRLPGFTGLTIADQITLLKAACLDILILRICTRYTPEQDTMTFSDGLTLNRTQMHNAGFGPLTDLVFTFANQLLPLEMDDTETGLLSAICLICGDRQDLEEPTKVDKLQEPLLEALKIYIRKRRPSKPHMFPKILMKITDLRSISAKGAERVITLKMEIPGSMPPLIQEMLENSEGHEPLTPSSSGNTAEHSPSISPSSVENSGVSQSPLVQ | 1.31 | 41.4 | 1.3 | 14.32 | 1.2 | 1.21 | 4.4 | 1.0 | 1.00 | 4.3 | 1.0 | 1.00 | 2.1 | 1.4 | 2.08 | 1.8 | 197.0 | 1.84
2 | CAR: Constitutive Androstane Receptor (NR1I3), cDNA driver (protein, UniProt Q14994 1-352, looked up) Nuclear receptor subfamily 1 …: MASREDELRNCVVCGDQATGYHFNALTCEGCKGFFRRTVSKSIGPTCPFAGSCEVSKTQRRHCPACRLQKCLDAGMRKDMILSAEALALRRAKQAQRRAQQTPVQLSKEQEELIRTLLGAHTRHMGTMFEQFVQFRPPAHLFIHHQPLPTLAPVLPLVTHFADINTFMVLQVIKFTKDLPVFRSLPIEDQISLLKGAAVEICHIVLNTTFCLQTQNFLCGPLRYTIEDGARVSPTVGFQVEFLELLFHFHGTLRKLQLQEPEYVLLAAMALFSPDRPGVTQRDEIDQLQEEMALTLQSYIKGQQRRPRDRFLYAKLLGLLAELRSINEAYGYQIQHIQGLSAMMPLLQEICS | 0.82 | 25.9 | 0.8 | 9.21 | 0.8 | 0.78 | 3.3 | 0.7 | 0.74 | 4.3 | 1.0 | 1.00 | 0.9 | 0.6 | 0.90 | 1.1 | 115.7 | 1.08
3 | RARg: Retinoic acid receptor γ (NR1B3), nuclear hormone receptor cDNA driver (protein, UniProt P13631 1-454, looked up) Retinoic acid receptor gamma: MATNKERLFAAGALGPGSGYPGAGFPFAFPGALRGSPPFEMLSPSFRGLGQPDLPKEMASLSVETQSTSSEEMVPSSPSPPPPPRVYKPCFVCNDKSSGYHYGVSSCEGCKGFFRRSIQKNMVYTCHRDKNCIINKVTRNRCQYCRLQKCFEVGMSKEAVRNDRNKKKKEVKEEGSPDSYELSPQLEELITKVSKAHQETFPSLCQLGKYTTNSSADHRVQLDLGLWDKFSELATKCIIKIVEFAKRLPGFTGLSIADQITLLKAACLDILMLRICTRYTPEQDTMTFSDGLTLNRTQMHNAGFGPLTDLVFAFAGQLLPLEMDDTETGLLSAICLICGDRMDLEEPEKVDKLQEPLLEALRLYARRRRPSQPYMFPRMLMKITDLRGISTKGAERAITLKMEIPGPMPPLIREMLENPEMFEDDSSQPGPHPNASSEDEVPGGQGKGGLKSPA | 0.99 | 31.4 | 1.0 | 12.70 | 1.1 | 1.07 | 5.0 | 1.1 | 1.13 | 3.7 | 0.9 | 0.87 | 2.0 | 1.3 | 1.98 | 1.6 | 167.8 | 1.57
4 | PXR: Pregnane X Receptor (NR1I2), cDNA driver (protein, UniProt O75469 1-434, looked up) Nuclear receptor subfamily 1 …: MEVRPKESWNHADFVHCEDTESVPGKPSVNADEEVGGPQICRVCGDKATGYHFNVMTCEGCKGFFRRAMKRNARLRCPFRKGACEITRKTRRQCQACRLRKCLESGMKKEMIMSDEAVEERRALIKRKKSERTGTQPLGVQGLTEEQRMMIRELMDAQMKTFDTTFSHFKNFRLPGVLSSGCELPESLQAPSREEAAKWSQVRKDLCSLKVSLQLRGEDGSVWNYKPPADSGGKEIFSLLPHMADMSTYMFKGIISFAKVISYFRDLPIEDQISLLKGAAFELCQLRFNTVFNAETGTWECGRLSYCLEDTAGGFQQLLLEPMLKFHYMLKKLQLHEEEYVLMQAISLFSPDRPGVLQHRVVDQLQEQFAITLKSYIECNRPQPAHRFLFLKIMAMLTELRSINAQHTQRLLRIQDIHPFATPLMQELFGITGS | 1.16 | 36.5 | 1.2 | 10.19 | 0.9 | 0.86 | 2.1 | 0.5 | 0.47 | 4.2 | 1.0 | 0.98 | 1.3 | 0.9 | 1.34 | 2.0 | 209.7 | 1.96
5 | FXR: Farnesoid X Receptor (NR1H4), cDNA driver (protein, UniProt Q96RI1 1-486, looked up) Bile acid receptor: MVMQFQGLENPIQISPHCSCTPSGFFMEMMSMKPAKGVLTEQVAGPLGQNLEVEPYSQYSNVQFPQVQPQISSSSYYSNLGFYPQQPEEWYSPGIYELRRMPAETLYQGETEVAEMPVTKKPRMGASAGRIKGDELCVVCGDRASGYHYNALTCEGCKGFFRRSITKNAVYKCKNGGNCVMDMYMRRKCQECRLRKCKEMGMLAECMYTGLLTEIQCKSKRLRKNVKQHADQTVNEDSEGRDLRQVTSTTKSCREKTELTPDQQTLLHFIMDSYNKQRMPQEITNKILKEEFSAEENFLILTEMATNHVQVLVEFTKKLPGFQTLDHEDQIALLKGSAVEAMFLRSAEIFNKKLPSGHSDLLEERIRNSGISDEYITPMFSFYKSIGELKMTQEEYALLTAIVILSPDRQYIKDREAVEKLQEPLLDVLQKLCKIHQPENPQHFACLLGRLTELRTFNHHHAEMLMSWRVNDHKFTPLLCEIWDVQ | 0.78 | 24.6 | 0.8 | 7.82 | 0.7 | 0.66 | 4.2 | 1.0 | 0.95 | 2.8 | 0.6 | 0.65 | 1.3 | 0.9 | 1.30 | 1.2 | 124.1 | 1.16
6 | PPARd: Peroxisome proliferator activated receptor δ (NR1C2), cDNA driver (protein, UniProt Q03181 1-441, looked up) Peroxisome …: MEQPQEEAPEVREEEEKEEVAEAEGAPELNGGPQHALPSSSYTDLSRSSSPPSLLDQLQMGCDGASCGSLNMECRVCGDKASGFHYGVHACEGCKGFFRRTIRMKLEYEKCERSCKIQKKNRNKCQYCRFQKCLALGMSHNAIRFGRMPEAEKRKLVAGLTANEGSQYNPQVADLKAFSKHIYNAYLKNFNMTKKKARSILTGKASHTAPFVIHDIETLWQAEKGLVWKQLVNGLPPYKEISVHVFYRCQCTTVETVRELTEFAKSIPSFSSLFLNDQVTLLKYGVHEAIFAMLASIVNKDGLLVANGSGFVTREFLRSLRKPFSDIIEPKFEFAVKFNALELDDSDLALFIAAIILCGDRPGLMNVPRVEAIQDTILRALEFHLQANHPDAQYLFPKLLQKMADLRQLVTEHAQMMQRIKKTETETSLHPLLQEIYKDMY | 1.22 | 38.6 | 1.2 | 7.88 | 0.7 | 0.67 | 3.5 | 0.8 | 0.79 | 3.8 | 0.9 | 0.89 | 1.7 | 1.1 | 1.69 | 1.8 | 190.4 | 1.78
